US20030092066A1, “Purified Stat proteins and methods of purifying thereof” (published 2003)

Key:
[1] = target: nonphosphorylated human Stat1α (human) (UniProt P42224); assay: cell-based or functional assay
[2] = target: tyrosine-phosphorylated Stat1tc, truncated Stat1 (132-713) (human) (UniProt P42224); assay: cell-based or functional assay
[3] = target: tyrosine-phosphorylated human Stat1α (human) (UniProt P42224); assay: cell-based or functional assay
[4] = target: T1, Stat1tc (Stat1 132-713, Tyr701-phosphorylated, NEM-alkylated) (Homo sapiens, UniProt P42224 SEQ:1-582); assay: EMSA; dimer and two-dimer complexes both displaced in <1 min; no stabilisation (lacks residues 1-131); settings: tags: none; E. coli; initiator Met absent; phosphorylated in vitro by EGF-receptor kinase; chain copies: 2 (stated, homodimer); label: 32P (Klenow fill-in); protruding 5'-TCC, filled in; two parallel sites
T1 chain: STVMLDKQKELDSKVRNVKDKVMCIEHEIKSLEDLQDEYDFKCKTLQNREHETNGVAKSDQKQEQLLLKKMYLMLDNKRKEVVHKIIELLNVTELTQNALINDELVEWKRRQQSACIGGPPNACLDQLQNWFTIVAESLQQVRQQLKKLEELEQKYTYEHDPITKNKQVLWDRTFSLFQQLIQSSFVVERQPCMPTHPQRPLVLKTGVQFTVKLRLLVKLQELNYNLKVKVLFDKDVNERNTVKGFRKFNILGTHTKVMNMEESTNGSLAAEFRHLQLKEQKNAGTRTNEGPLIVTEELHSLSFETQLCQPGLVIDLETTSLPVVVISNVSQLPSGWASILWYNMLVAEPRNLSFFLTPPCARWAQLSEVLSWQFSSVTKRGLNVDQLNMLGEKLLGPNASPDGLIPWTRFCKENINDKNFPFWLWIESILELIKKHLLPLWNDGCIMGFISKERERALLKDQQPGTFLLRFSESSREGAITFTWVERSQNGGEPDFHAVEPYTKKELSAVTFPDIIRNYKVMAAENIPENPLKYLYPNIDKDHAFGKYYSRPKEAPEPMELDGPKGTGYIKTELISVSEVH
Protocol: FIG. 6A. Comparison of the dissociation rates of complexes containing DNA fragments with two consecutive binding sites (2×osWT, 10 bp apart) and Stat1α (right) or Stat1tc (left). 0.5×10⁻⁹ M dimer was prebound with 0.7×10⁻⁹ M radiolabelled DNA for 5 min at room temperature (lanes 1 and 8). After the addition of a 100-fold molar excess of unlabelled DNA at time point zero the reaction was further incubated for the times indicated before aliquots were loaded on a running polyacrylamide gel. At time zero two differently migrating complexes are visible, denoted “(2×(Dimer))” and “Dimer”. Unbound (free) DNA runs at the bottom of the gel.
Dissociation rate determination. Under the reaction conditions described above, each oligonucleotide (at 2×10⁻⁹ M or otherwise stated) was mixed with 0.55×10⁻⁹ M dimer of purified phosphorylated Stat1 protein. The reaction volume was scaled up to 100 μl. The reaction was incubated for 5-15 min at room temperature and for time zero, an aliquot (10 μl) was removed and loaded directly onto a pre-run polyacrylamide gel (see above). […] Gels were dried, exposed to X-ray film and labelled protein/DNA complexes and unbound labelled DNA were quantitated as described above. The half life was determined from a semi-log plot of the numerical data (shifted radioactivity over shifted radioactivity at time zero versus time). […]

[5] = target: the molecule itself; assay: dimerization in solution, method not given

Work on “EGF-receptor from human carcinoma A431 cells (from UniProt P00533 25-1210)” yielded a percentage of Stat protein that was phosphorylated [1] of less than 75%.

“tyrosine-phosphorylated Stat1tc, truncated Stat1 (132-713) (from UniProt P42224 132-713)” gave a displacement of dimeric and [2×(dimeric)] complexes on tandem DNA sites by excess unlabelled oligonucleotide [2] of less than 1 min.

“tyrosine-phosphorylated human Stat1α (from UniProt P42224 1-750)” showed a displacement of the [2×(dimeric)] complex on tandem DNA sites by excess unlabelled oligonucleotide [3] greater than 30 min.

B1: 2xcfosWT tandem, 10 bp spacing (dsDNA)
DNA 1: AGTCAGTTCCCGTCAATGCATCAGGTTCCCGTCAATGCAT
DNA 2: ATGCATTGACGGGAACCTGATGCATTGACGGGAACTGACT
B1: binds [4].

B2: amino terminal domain of Stat1 (amino terminal 131 amino acids) (other)
chain: MSQWYELQQLDSKFLEQVHQLYDDSFPMEIRQYLAQWLEKQDWEHAANDVSFATIRFHDLLSQLDDQYSRFSLENNFLLQHNIRKSKRNLQDNFQEDPIQMSMIIYSCLKEERKILENAQRFNQAQSGNIQ
notes: also called 16 kDa fragment; N-terminal fragment
B2: binds [5].
